Results from patent US20090292112A1 (published 2009).

Molecular target: T1, RG1 polypeptide (native RG1 protein, purified from transfected BHK cells) (human, UniProt Q9BUD6 27-331)
T1 construct: The Biacore assay used BHK-RG1; The Western blots used RG1 from COS, LNCaP and BHK cells and from lysates; also called nRG1; BHK-RG1
T1 chain: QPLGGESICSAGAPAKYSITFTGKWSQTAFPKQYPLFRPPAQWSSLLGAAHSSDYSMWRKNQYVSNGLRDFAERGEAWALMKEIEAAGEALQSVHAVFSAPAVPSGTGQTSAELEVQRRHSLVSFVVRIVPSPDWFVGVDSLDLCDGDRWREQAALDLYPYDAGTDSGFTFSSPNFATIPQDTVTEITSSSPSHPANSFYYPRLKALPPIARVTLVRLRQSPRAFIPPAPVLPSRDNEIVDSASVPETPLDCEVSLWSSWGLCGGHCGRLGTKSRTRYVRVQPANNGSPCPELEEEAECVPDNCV
Test: BIAcore SPR; mab captured on anti-human IgG Fc, soluble BHK-RG1 12.5-400 nM, 1:1 Langmuir fit
Method: Kinetic constants (KD, kₐ and kd) of mab binding to native RG1 protein were determined by BIAcore using a capture format in which soluble, native RG1 protein was bound to immobilized mab on a sensor chip. ImmunoPure rabbit anti-human IgGFc (Pierce, 31142) was covalently immobilized to the Sensor Chip CM5 (Biacore, BR-1000-12) using standard amine coupling methods. 100 ug/ml antibody diluted in 10 mm acetate, pH 4.0 was used at 5 ul/min. HBS-EP (Biacore, BR-1001-88) was used as mobile phase. Unreacted sites were blocked with ethanolamine. Mabs were diluted to 200 nM with HBS and 50 ul was injected per cycle at 10 ul/min. Serial dilutions of BHK-RG1 (12.5-400 nM) were bound to the immobilized mab. Dissociation kinetics were measured immediately after the antigen injection was completed at 20 ul/min for 8 minutes. The surface was regenerated following each cycle using 25 ul of 10 mm glycine, pH 1.8 and then washed with HBS.
Data were fit to a 1:1 Langmuir model using the software provided by the instrument manufacturer (BIAevaluation 3.0), and kinetic constants were calculated.

Kd: 8.4 nM
koff: 0.00023 s⁻¹
kon: 29000 M⁻¹ s⁻¹
B1: human RG1 monoclonal antibody B (antibody, V domains shown)
VH: EVQLVQSGGGLVMPGGSLRLSCAGSGFTFSSYVMHWLRQAPGKGLEWVSVIGTGGVTHYADSVKGRFMISRDNAKNSLYLQMNSLRAEDTAMYYCARWGYYGSGSYENDAFDIWGQGTMVTVSS
VL: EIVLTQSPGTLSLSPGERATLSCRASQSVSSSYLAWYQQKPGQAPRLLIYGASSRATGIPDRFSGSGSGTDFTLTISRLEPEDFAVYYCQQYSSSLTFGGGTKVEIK
notes: Hybridomas were screened for human IgG,kappa, and the isotype of this clone is not explicitly stated; also called M ab B
